The source of these data is publication PMC1626583.

The assay deals with FIII9–10 mutant Ala5, GST fusion protein (human). In words: SPR. Background: Surface plasmon resonance follows binding to a sensor surface in real time, without labels.

In general, Kd refers to the constant that tells how readily two partners part at equilibrium. Turning to “integrin α5β1 (from UniProt P05556 21-798) (receptor)”, the Kd was found to be 63 nM.
